The source of these data is paper PMC2741464.

In one data set the target is Ku70/Ku80 C493A (human, UniProt P12956;P13010 1-609;1-732, C493A). Kind of data set: EMSA; reduced; near wild type; 50 mM Tris-HCl pH 7.8, 10 mM MgCl2, 50 mM NaCl (FP: plus 1 mM DTT, 0.5 ml; EMSA: 20 μl, 500 fmol DNA); oxidation 2 mM diamide 15 min on ice, re-reduction 5 mM DTT 15 min on ice; binding temperature not stated. To be noted: protein: recombinant; tags: His6 on Ku70; copies: 1;1; label: 32P; blunt.

For a further data set, the target named is Ku70/Ku80 C493S (human, UniProt P12956;P13010 1-609;1-732, C493S). The experiment in a line: EMSA; reduced; similar to wild type (data not shown); 50 mM Tris-HCl pH 7.8, 10 mM MgCl2, 50 mM NaCl (FP: plus 1 mM DTT, 0.5 ml; EMSA: 20 μl, 500 fmol DNA); oxidation 2 mM diamide 15 min on ice, re-reduction 5 mM DTT 15 min on ice; binding temperature not stated. The conditions noted are these: protein: recombinant; tags: His6 on Ku70; copies: 1;1; label: 32P; blunt. A general note: In EMSA bound probe runs differently from free probe, usually more slowly.

In data set [1] the target is T1, Ku70/80ΔC (human, UniProt P12956;P13010 1-609;1-548). The experiment in a line: EMSA; reduced (control), 10 mM Mg2+, probably nM; 50 mM Tris-HCl pH 7.8, 10 mM MgCl2, 50 mM NaCl (FP: plus 1 mM DTT, 0.5 ml; EMSA: 20 μl, 500 fmol DNA); oxidation 2 mM diamide 15 min on ice, re-reduction 5 mM DTT 15 min on ice; binding temperature not stated. The conditions noted are these: protein: recombinant; tags: His6 on Ku70; N-terminal His6 (pRSET B) also on Ku80ΔC per Methods; copies: 1;1; label: 32P; blunt.

Data set [2] has as its target T2, Ku70/Ku80 heterodimer, wild type (human, UniProt P12956;P13010 1-609;1-732). The experiment in a line: EMSA; reduced (control), 10 mM Mg2+, titration was 0-150 nM so probably nM; 50 mM Tris-HCl pH 7.8, 10 mM MgCl2, 50 mM NaCl (FP: plus 1 mM DTT, 0.5 ml; EMSA: 20 μl, 500 fmol DNA); oxidation 2 mM diamide 15 min on ice, re-reduction 5 mM DTT 15 min on ice; binding temperature not stated. To be noted: protein: recombinant; tags: His6 on Ku70; copies: 1;1; label: 32P; blunt.

Data set [3] concerns the target T2, Ku70/Ku80 heterodimer, wild type. Kind of data set: fluorescence polarization; re-reduced: 2 mM diamide then 5 mM DTT, probably nM; 50 mM Tris-HCl pH 7.8, 10 mM MgCl2, 50 mM NaCl (FP: plus 1 mM DTT, 0.5 ml; EMSA: 20 μl, 500 fmol DNA); oxidation 2 mM diamide 15 min on ice, re-reduction 5 mM DTT 15 min on ice; binding temperature not stated. The conditions noted are these: protein: recombinant; tags: His6 on Ku70; copies: 1;1; blunt. (In general: Polarisation of emitted light reports the rotation of a fluorescent probe.)

Data set [4] deals with T1, Ku70/80ΔC. Kind of data set: fluorescence polarization; reduced (control), 1 mM DTT, 10 mM Mg2+, probably nM; 50 mM Tris-HCl pH 7.8, 10 mM MgCl2, 50 mM NaCl (FP: plus 1 mM DTT, 0.5 ml; EMSA: 20 μl, 500 fmol DNA); oxidation 2 mM diamide 15 min on ice, re-reduction 5 mM DTT 15 min on ice; binding temperature not stated. To be noted: protein: recombinant; tags: His6 on Ku70; N-terminal His6 (pRSET B) also on Ku80ΔC per Methods; copies: 1;1; blunt.

Data set [5] has as its target T2, Ku70/Ku80 heterodimer, wild type. The description is as above. The conditions noted are these: protein: recombinant; tags: His6 on Ku70; copies: 1;1; blunt.

T2 sequence (P12956 whole entry, chain 1 of 2): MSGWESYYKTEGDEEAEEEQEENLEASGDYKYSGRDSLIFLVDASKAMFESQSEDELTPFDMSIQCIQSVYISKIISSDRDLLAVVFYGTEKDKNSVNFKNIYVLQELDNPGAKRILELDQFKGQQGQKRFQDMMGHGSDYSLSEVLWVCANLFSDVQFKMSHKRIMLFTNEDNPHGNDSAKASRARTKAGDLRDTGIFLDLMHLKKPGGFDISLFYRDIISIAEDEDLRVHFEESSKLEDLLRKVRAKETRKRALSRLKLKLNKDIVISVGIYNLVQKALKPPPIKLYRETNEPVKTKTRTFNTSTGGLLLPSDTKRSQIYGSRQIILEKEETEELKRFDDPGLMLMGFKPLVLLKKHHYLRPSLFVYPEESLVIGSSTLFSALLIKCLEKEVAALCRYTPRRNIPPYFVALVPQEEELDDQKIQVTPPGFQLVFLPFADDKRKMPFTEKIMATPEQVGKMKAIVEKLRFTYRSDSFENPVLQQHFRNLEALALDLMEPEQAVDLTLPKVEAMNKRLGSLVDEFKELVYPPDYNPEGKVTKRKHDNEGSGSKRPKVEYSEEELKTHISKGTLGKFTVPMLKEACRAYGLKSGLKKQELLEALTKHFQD
T2 sequence (P13010 whole entry, chain 2 of 2): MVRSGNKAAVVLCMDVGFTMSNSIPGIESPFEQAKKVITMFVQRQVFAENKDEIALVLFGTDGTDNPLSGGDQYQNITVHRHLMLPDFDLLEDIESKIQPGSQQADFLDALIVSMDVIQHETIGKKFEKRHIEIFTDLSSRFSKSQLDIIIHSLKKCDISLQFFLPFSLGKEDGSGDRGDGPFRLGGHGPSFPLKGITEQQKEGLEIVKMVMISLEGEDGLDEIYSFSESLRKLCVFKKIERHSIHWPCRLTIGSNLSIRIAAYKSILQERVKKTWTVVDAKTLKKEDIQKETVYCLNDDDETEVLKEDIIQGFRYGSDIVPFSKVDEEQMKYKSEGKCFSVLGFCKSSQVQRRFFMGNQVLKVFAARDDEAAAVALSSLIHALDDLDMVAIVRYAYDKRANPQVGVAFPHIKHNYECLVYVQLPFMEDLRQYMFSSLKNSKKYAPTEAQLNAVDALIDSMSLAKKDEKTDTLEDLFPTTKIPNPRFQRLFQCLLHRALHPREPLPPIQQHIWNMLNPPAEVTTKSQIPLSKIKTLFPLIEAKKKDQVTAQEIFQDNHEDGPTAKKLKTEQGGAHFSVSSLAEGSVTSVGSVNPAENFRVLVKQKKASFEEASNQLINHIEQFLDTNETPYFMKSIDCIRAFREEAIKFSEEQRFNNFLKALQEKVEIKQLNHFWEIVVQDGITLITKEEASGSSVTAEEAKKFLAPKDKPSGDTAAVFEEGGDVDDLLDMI
T1 sequence (P12956 whole entry, stated change not applied, chain 1 of 2): as the sequence (P12956 whole entry, chain 1 of 2) above
T1 sequence (P13010 1-548, stated change not applied, chain 2 of 2): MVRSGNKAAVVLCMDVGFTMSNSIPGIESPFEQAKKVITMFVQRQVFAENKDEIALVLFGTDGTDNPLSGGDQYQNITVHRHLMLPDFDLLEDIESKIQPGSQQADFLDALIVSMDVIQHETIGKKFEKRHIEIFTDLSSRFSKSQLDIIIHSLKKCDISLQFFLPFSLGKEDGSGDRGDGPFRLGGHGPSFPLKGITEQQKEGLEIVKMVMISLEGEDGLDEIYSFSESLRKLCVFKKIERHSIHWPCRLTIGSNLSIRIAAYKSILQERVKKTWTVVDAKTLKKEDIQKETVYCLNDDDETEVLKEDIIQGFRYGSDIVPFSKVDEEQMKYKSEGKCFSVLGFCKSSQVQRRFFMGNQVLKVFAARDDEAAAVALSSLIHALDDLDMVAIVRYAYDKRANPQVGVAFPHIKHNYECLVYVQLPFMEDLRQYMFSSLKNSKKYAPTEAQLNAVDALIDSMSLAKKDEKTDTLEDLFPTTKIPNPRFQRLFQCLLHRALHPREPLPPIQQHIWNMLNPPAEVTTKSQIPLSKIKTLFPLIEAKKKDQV
Ku70/Ku80 C493S, sequence (P12956 whole entry, chain 1 of 2): as the sequence (P12956 whole entry, chain 1 of 2) above
Ku70/Ku80 C493S, sequence (P13010 whole entry C493S, chain 2 of 2): as the sequence (P13010 whole entry, chain 2 of 2) above, with C493S counted along it
Ku70/Ku80 C493A, sequence (P12956 whole entry, chain 1 of 2): as the sequence (P12956 whole entry, chain 1 of 2) above
Ku70/Ku80 C493A, sequence (P13010 whole entry C493A, chain 2 of 2): as the sequence (P13010 whole entry, chain 2 of 2) above, with C493A counted along it

B1: 30-bp duplex 30A/30C (EMSA) (dsDNA)
DNA 1: CCCCTATCCTTTCCGCGTCCTTACTTCCCC
DNA 2: GGGGAAGTAAGGACGCGGAAAGGATAGGGG
For the molecule B1, the binding result in the data set with Ku70/Ku80 C493A and in the data set with Ku70/Ku80 C493S was “binds” in each case. In addition, the Kd (usually the constant that tells how readily two partners part at equilibrium) was determined as 51 ± 7.7 nM in the data set with Ku70/80ΔC [1] and 29.7 ± 2.5 nM in data set [2].

B2: 30-bp duplex 30A/30C, fluorescein (polarization) (dsDNA)
DNA 1: B1 DNA 1
DNA 2: B1 DNA 2
For the molecule B2, the Kd in data set [3] stood at 31.4 ± 3 nM; with Ku70/80ΔC [4], 25.7 ± 1.5 nM; in data set [5], 25.8 ± 2.3 nM.
